The test system of the data set is Escherichia coli TOP10. The data set is described as follows: shrunken log2 fold change of peptide-encoding DNA abundance (4.5 h post-induction vs induction); higher = less antimicrobial activity (less host growth inhibition). As to conditions: time post-induction: 4.5 h; library: site-saturation at positions 5, 18, 19, 20.

We go through 91 sequences from the supplement of paper PMC9112550, “Optimization of the antimicrobial peptide Bac7 by deep mutational scanning” (BMC Biology, 2022).
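Also: peptides expressed intracellularly from a pBAD plasmid library in pooled LB shake-flask culture, induced with 0.3% L-arabinose, DNA abundance read by NGS, three biological replicates, DESeq2 with apeglm shrinkage.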

Take RRIRDRPPRLPRPRPRPYVEPRP: the “shrunken log2 fold change” value is -0.125.
The same measure for RRIRMRPPRLPRPRPRPLHTPRP: 2.66.
The same measure for RRIRRRPPRLPRPRPRPACDPRP: 0.539.
The same measure for RRIRRRPPRLPRPRPRPAYSPRP: 0.0936; for RRIRMRPPRLPRPRPRPRVLPRP: 1.12; for RRIRQRPPRLPRPRPRPCYDPRP: -0.357.
Regarding RRIRNRPPRLPRPRPRPEAIPRP, the “shrunken log2 fold change” value came to 0.113.
The same measure for RRIRIRPPRLPRPRPRPRFNPRP: -0.173.
With RRIRYRPPRLPRPRPRPELQPRP, the “shrunken log2 fold change” value turned out to be 0.0344.
The same measure for RRIRGRPPRLPRPRPRPPCIPRP: 0.117.
The figure for RRIRWRPPRLPRPRPRPTSRPRP is 0.0324.
With RRIRIRPPRLPRPRPRPEPWPRP, the “shrunken log2 fold change” value came out at 0.39.
On to RRIRSRPPRLPRPRPRPGCTPRP, for which the “shrunken log2 fold change” value was found to be 0.22.
The figure for RRIRSRPPRLPRPRPRPKFYPRP is -0.371; for RRIRSRPPRLPRPRPRPSMNPRP it is -0.454.
For the sequence RRIRHRPPRLPRPRPRPMKMPRP, the “shrunken log2 fold change” value was found to be 0.043.
The same measure for RRIRNRPPRLPRPRPRPMMSPRP: 0.0191; for RRIRERPPRLPRPRPRPGYGPRP: -0.165; for RRIRRRPPRLPRPRPRPFFKPRP: -0.177.
Take RRIRERPPRLPRPRPRPNSQPRP: the “shrunken log2 fold change” value is -0.389.
With RRIRWRPPRLPRPRPRPGQWPRP, the “shrunken log2 fold change” value worked out at 0.032.
The figure for RRIRLRPPRLPRPRPRPGTPPRP is 0.0973; for RRIRTRPPRLPRPRPRPHAQPRP it is 0.211; for RRIRERPPRLPRPRPRPRMDPRP it is -0.495.
The figure for RRIRRRPPRLPRPRPRPVDMPRP is 0.0522; for RRIRCRPPRLPRPRPRPPRCPRP it is 1.9.
The figure for RRIRHRPPRLPRPRPRPYMDPRP is -0.356.
As to RRIRLRPPRLPRPRPRPWRCPRP, the “shrunken log2 fold change” value was 0.336.
As for RRIRARPPRLPRPRPRPPQRPRP, the “shrunken log2 fold change” value was determined as 1.16.
The same measure for RRIRSRPPRLPRPRPRPSIYPRP: -0.00286; for RRIRCRPPRLPRPRPRPAIYPRP: -0.17.
Turning to RRIRPRPPRLPRPRPRPYIQPRP, the “shrunken log2 fold change” value is -0.375.
The figure for RRIRHRPPRLPRPRPRPTFDPRP is 0.0575; for RRIRFRPPRLPRPRPRPHACPRP it is -0.867; for RRIRVRPPRLPRPRPRPTDAPRP it is 0.0111.
The figure for RRIRERPPRLPRPRPRPISHPRP is -0.678; for RRIRGRPPRLPRPRPRPKMLPRP it is 0.509; for RRIRIRPPRLPRPRPRPDINPRP it is -0.0484.
The same measure for RRIRHRPPRLPRPRPRPKGHPRP: -0.311; for RRIRHRPPRLPRPRPRPVVQPRP: 0.13; for RRIRARPPRLPRPRPRPANFPRP: 0.137.
As for RRIRDRPPRLPRPRPRPWMFPRP, the “shrunken log2 fold change” value was -0.0535.
The same measure for RRIRDRPPRLPRPRPRPQQMPRP: -0.0585.
In the case of RRIRKRPPRLPRPRPRPGAHPRP, the “shrunken log2 fold change” value amounted to 0.663.
Consider RRIRCRPPRLPRPRPRPKWTPRP, for which the “shrunken log2 fold change” value was -0.0568.
The same measure for RRIRWRPPRLPRPRPRPEMFPRP: 0.274; for RRIRHRPPRLPRPRPRPQWSPRP: -0.0854; for RRIRARPPRLPRPRPRPFSFPRP: -0.235.
Consider RRIRVRPPRLPRPRPRPGTHPRP, for which the “shrunken log2 fold change” value is -0.056.
As for RRIRCRPPRLPRPRPRPAQQPRP, the “shrunken log2 fold change” value is 0.342.
The same measure for RRIRHRPPRLPRPRPRPDHMPRP: 0.00372.
For RRIRTRPPRLPRPRPRPVMMPRP, the “shrunken log2 fold change” value is -0.199.
In the case of RRIRNRPPRLPRPRPRPASGPRP, the “shrunken log2 fold change” value was found to be 0.247.
The same measure for RRIRWRPPRLPRPRPRPFRVPRP: -0.0169; for RRIRHRPPRLPRPRPRPTCLPRP: -0.0796; for RRIRTRPPRLPRPRPRPQKRPRP: 0.206.
Consider RRIRHRPPRLPRPRPRPPWYPRP, for which the “shrunken log2 fold change” value was -0.232.
As to RRIRKRPPRLPRPRPRPQDLPRP, the “shrunken log2 fold change” value is -0.000826.
The same measure for RRIRVRPPRLPRPRPRPAMDPRP: 0.21; for RRIRTRPPRLPRPRPRPNISPRP: -0.293.
The same measure for RRIRDRPPRLPRPRPRPTIIPRP: -0.127.
In the case of RRIRMRPPRLPRPRPRPYIAPRP, the “shrunken log2 fold change” value was -0.038.
The same measure for RRIRCRPPRLPRPRPRPIAPPRP: 0.509; for RRIRKRPPRLPRPRPRPKFMPRP: -0.0124; for RRIRMRPPRLPRPRPRPAIMPRP: 0.284.
As to RRIRLRPPRLPRPRPRPASMPRP, the “shrunken log2 fold change” value was -0.357.
In the case of RRIRWRPPRLPRPRPRPSVMPRP, the “shrunken log2 fold change” value was -0.333.
In the case of RRIRQRPPRLPRPRPRPAQQPRP, the “shrunken log2 fold change” value was found to be 0.00707.
The same measure for RRIRYRPPRLPRPRPRPECFPRP: -0.288; for RRIRFRPPRLPRPRPRPKGAPRP: -0.0295.
The figure for RRIRIRPPRLPRPRPRPCWQPRP is -0.211; for RRIRFRPPRLPRPRPRPFFGPRP it is 0.0944.
As to RRIRARPPRLPRPRPRPVTAPRP, the “shrunken log2 fold change” value was 0.654.
In the case of RRIRERPPRLPRPRPRPTKTPRP, the “shrunken log2 fold change” value is -0.0835.
The figure for RRIRIRPPRLPRPRPRPNDGPRP is -0.483; for RRIRFRPPRLPRPRPRPVKTPRP it is 0.0856; for RRIRTRPPRLPRPRPRPQMNPRP it is -0.345.
The figure for RRIRERPPRLPRPRPRPRHRPRP is -0.114; for RRIRFRPPRLPRPRPRPPQSPRP it is 0.334; for RRIRHRPPRLPRPRPRPCTIPRP it is -0.0935.
The figure for RRIRRRPPRLPRPRPRPMQEPRP is -0.206.
For the sequence RRIRWRPPRLPRPRPRPLCLPRP, the “shrunken log2 fold change” value amounted to 0.949.
The same measure for RRIRLRPPRLPRPRPRPISLPRP: -0.36; for RRIRSRPPRLPRPRPRPPVEPRP: -0.0919.
The same measure for RRIRSRPPRLPRPRPRPFTPPRP: -0.0114; for RRIRMRPPRLPRPRPRPCMKPRP: -0.125; for RRIRMRPPRLPRPRPRPYQTPRP: -0.0231.
The figure for RRIRWRPPRLPRPRPRPWDGPRP is 0.00386; for RRIRDRPPRLPRPRPRPDCKPRP it is 0.0499.
Take RRIRTRPPRLPRPRPRPPVAPRP: the “shrunken log2 fold change” value was 0.428.
On to RRIRERPPRLPRPRPRPYYLPRP, for which the “shrunken log2 fold change” value is -0.827.
